Laboratory results taken from patent US20190359687A1 (Bayer, published 2019).
Changes are numbered by the printed parent chain.

T1: human glycophorin A in the red blood cell membrane (human, UniProt P02724 20-150)
T1 construct: whole, on cells; used for intact RBC, isolated RBC membranes and transfected cells; the assay field tells which; also called GPA; hGPA
T1 sequence (looked up): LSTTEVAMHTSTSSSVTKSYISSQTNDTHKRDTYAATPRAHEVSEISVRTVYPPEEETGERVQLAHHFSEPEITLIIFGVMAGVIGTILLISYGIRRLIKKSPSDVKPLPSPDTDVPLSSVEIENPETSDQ

T2: Rhesus monkey glycophorin A on Rhesus monkey red blood cells (Rhesus monkey, UniProt A0A1D5Q349 20-150)
T2 construct: whole, on cells; also called Rhesus RBC; monkey GPA
T2 sequence: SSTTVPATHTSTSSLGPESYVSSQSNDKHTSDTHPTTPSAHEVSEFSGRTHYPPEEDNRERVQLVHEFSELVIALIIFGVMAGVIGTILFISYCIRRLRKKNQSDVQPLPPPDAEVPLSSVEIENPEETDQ

B1: Hu6C12-4 (antibody, V domains shown)
VH: EVQLVQSGAEVKKPGASVKVSCKASGYTFTTYTIHWVRQAPGQGLEWMGYINPSSDYTRYNPKFKDRVTLTTDTSTSTAYMELRSLRSDDTAVYYCQRGTRDYWGQGTTVTVSS
VL: DIQLTQSPSFLSASVGDRVTITCSAASSVSYIYWYQQKPGKAPKLLIYSTSTLPSGVPSRFSGSGSGTEFTLTISSLQPEDFATYYCHQRNSFPFTFGQGTKLEIK
notes: IgG format; VH.1d + Vk.1
B2: Hu6C12-13 (antibody, V domains shown)
VH: B1 VH
VL: B1 VL with F70Y
notes: IgG format; VH.1d + Vk.1a
B3: Hu6C12-10 (antibody, V domains shown)
VH: B1 VH with L70M
VL: B1 VL with F70Y
notes: IgG format; VH.1a + Vk.1a
B4: Hu6C12-9 (antibody, V domains shown)
VH: B1 VH with L70M, Q97A
VL: B1 VL with F70Y
notes: IgG format; VH.1 + Vk.1a

What follows are binders tested against T1, human glycophorin A in the red blood … (assay: FACS, IgG).
Procedure: (§1) The binding of the humanized variants to intact red blood cells (RBC) from humans (Hu01 to 03; 3 individuals), Rhesus monkey (Rh01 to 03; 3 individuals) and Cynomolgus monkey (Cy01 to 02; 2 individuals) was measured by fluorescence activated cell sorting (FACS).

binding result | Binder
no binding | B1
no binding | B2
no binding | B3
no binding | B4

What follows are binders tested against T3, Cynomolgus monkey glycophorin A on Cynomolgus monkey red blood cells (Cynomolgus monkey) (assay: FACS, RBC Cy01).
T3 construct: whole, on cells; also called Cyno RBC; Cyno GPA
Procedure: as §1

fluorescence intensity | Binder
884 | B1
824 | B2
872 | B3
680 | B4

Each binder was assayed against T3, Cynomolgus monkey glycophorin A on … (assay: FACS, RBC Cy02).
Procedure: as §1

fluorescence intensity | Binder
989 | B1
937 | B2
973 | B3
756 | B4

These binders were tested against T1, human glycophorin A in the red blood … (assay: FACS, RBC Hu01).
Procedure: as §1

fluorescence intensity | Binder
3 | B1
3 | B2
3 | B3
3 | B4

The binders below were run against T1, human glycophorin A in the red blood … (assay: FACS, RBC Hu02).
Procedure: as §1

fluorescence intensity | Binder
3 | B1
3 | B2
3 | B3
3 | B4

The binders below were run against T1, human glycophorin A in the red blood … (assay: FACS, RBC Hu03).
Procedure: as §1

fluorescence intensity | Binder
2 | B1
2 | B2
2 | B3
2 | B4

These binders were tested against T2, Rhesus monkey glycophorin A on Rhesus … (assay: FACS, RBC Rh01).
Procedure: as §1

fluorescence intensity | Binder
1070 | B1
1370 | B2
1410 | B3
1060 | B4

Each binder was assayed against T2, Rhesus monkey glycophorin A on Rhesus … (assay: FACS, RBC Rh02).

fluorescence intensity | Binder
1320 | B1
1280 | B2
1310 | B3
1060 | B4

Each binder was assayed against T2, Rhesus monkey glycophorin A on Rhesus … (assay: FACS, RBC Rh03).
Procedure: as §1

fluorescence intensity | Binder
1340 | B1
1270 | B2
1310 | B3
1050 | B4
